Measured values reported in paper PMC9385667, “Structural basis for proton coupled cystine transport by cystinosin” (Nature Communications, 2022).
Residue numbers refer to the chain shown, from its start. Names may count otherwise. Each block holds one molecule with its values, some of them ahead of it.

Assays:
[1] = biological target: T1, Arabidopsis thaliana cystinosin (plant cystinosin) (Arabidopsis thaliana, UniProt P57758); test: pyranine proton-flux transport assay in proteoliposomes; assay type: biochemical; conditions: 500 μM substrate, pH 7.2, 25 °C, valinomycin / K+ gradient
T1 construct: gene At5g40670; codon-optimised gene expressed in Saccharomyces cerevisiae BJ5460 as cleavable C-terminal GFP-His fusion; tag cut with TEV protease; DDM-purified; reconstituted in POPE:POPG liposomes for transport
T1 sequence (P57758 1-270): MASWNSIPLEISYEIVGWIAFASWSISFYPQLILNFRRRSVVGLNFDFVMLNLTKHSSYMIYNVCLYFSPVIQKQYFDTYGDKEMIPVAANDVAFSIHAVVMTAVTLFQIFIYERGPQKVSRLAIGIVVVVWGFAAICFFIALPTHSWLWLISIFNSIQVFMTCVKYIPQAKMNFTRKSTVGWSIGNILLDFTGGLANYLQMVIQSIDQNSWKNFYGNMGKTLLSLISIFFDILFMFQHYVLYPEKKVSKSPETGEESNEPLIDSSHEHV

[2] = biological target: T1, Arabidopsis thaliana cystinosin (plant cystinosin); test: X-ray crystal structure, […] Å; conditions: complex with sybody Syb39; lipidic cubic phase; central binding site, inward-open state
[3] = biological target: T2, Arabidopsis thaliana cystinosin (plant cystinosin) (Arabidopsis thaliana, UniProt P57758, P169G); test: nanoDSF tryptophan fluorescence quench, DDM-purified protein; assay type: binding; conditions: 3.2 mM L-cystine, 10 μM protein, pH 7.2, 25 °C
T2 construct: gene At5g40670; codon-optimised gene expressed in Saccharomyces cerevisiae BJ5460 as cleavable C-terminal GFP-His fusion; tag cut with TEV protease; DDM-purified; reconstituted in POPE:POPG liposomes for transport
T2 sequence (P57758 1-270 P169G): T1 sequence (P57758 1-270) with P169G

[4] = biological target: T3, Arabidopsis thaliana cystinosin (plant cystinosin) (Arabidopsis thaliana, UniProt P57758, S228A); test: as above; assay type: binding; conditions: 3.2 mM L-cystine, 10 μM protein, pH 7.2, 25 °C
T3 construct: gene At5g40670; codon-optimised gene expressed in Saccharomyces cerevisiae BJ5460 as cleavable C-terminal GFP-His fusion; tag cut with TEV protease; DDM-purified; reconstituted in POPE:POPG liposomes for transport
T3 sequence (P57758 1-270 S228A): T1 sequence (P57758 1-270) with S228A

[5] = biological target: T4, Arabidopsis thaliana cystinosin (plant cystinosin) (Arabidopsis thaliana, UniProt P57758, W24F); test: as above; assay type: binding; conditions: 3.2 mM L-cystine, 10 μM protein, pH 7.2, 25 °C
T4 construct: gene At5g40670; codon-optimised gene expressed in Saccharomyces cerevisiae BJ5460 as cleavable C-terminal GFP-His fusion; tag cut with TEV protease; DDM-purified; reconstituted in POPE:POPG liposomes for transport
T4 sequence (P57758 1-270 W24F): T1 sequence (P57758 1-270) with W24F

[6] = system: T5, N[C@@H](CSSC[C@H](N)C(=O)O)C(=O)O; test: two-electrode voltage clamp in Xenopus laevis oocytes; assay type: cell-based, Homo sapiens; conditions: pH 5, -40 mV, ND-96, proton-coupled transport
T5 construct: no GFP; plasma membrane of Xenopus laevis oocytes

[7] = biological target: T6, Arabidopsis thaliana cystinosin (Arabidopsis thaliana, UniProt P57758 1-270); test: BLI
T6 chain: T1 sequence (P57758 1-270)

[8] = biological target: T7, Arabidopsis thaliana cystinosin (Arabidopsis thaliana, UniProt P57758); test: crystal structure; apo cystinosin with Nb1 and Nb4, lipidic cubic phase, 2.33 Å, PDB 7ZKZ; conditions: both partners purified
T7 construct: cystinosin from Arabidopsis thaliana, Uniprot P57758; codon-optimised synthetic gene in pDDGFP-Leu2d; also called plant cystinosin; the transporter; source: Saccharomyces cerevisiae BJ5460, purified in DDM (Ni-NTA, TEV cleavage, reverse IMAC, Superdex 200)

[9] = substrate: N[C@@H](CSSC[C@H](N)C(=O)O)C(=O)O; test: pyranine proton-flux transport assay in proteoliposomes; assay type: biochemical, Arabidopsis thaliana; conditions: pH 7.2 both sides, 25 °C, valinomycin / K+ gradient
[10] = substrate: N[C@@H](CSSC[C@H](N)C(=O)O)C(=O)O; test: two-electrode voltage clamp in Xenopus laevis oocytes; assay type: cell-based, Homo sapiens; conditions: pH 5, -40 mV, ND-96, proton-coupled transport
[11] = biological target: T7, Arabidopsis thaliana cystinosin; test: crystal structure; apo cystinosin with Syb39 and Nb4, lipidic cubic phase (monoolein), 20 °C, 2.65 Å, PDB 7ZK1; conditions: both partners purified

transport, % of WT levels at 500 μM [1]: ~ 80%
Molecule: N[C@@H](CSS(=O)(=O)C[C@H](N)C(=O)O)C(=O)O [L-cystine-S,S-dioxide]

% loss of binding relative to WT [4]: ~ 50%
% loss of binding relative to WT [5]: ~ 50%
Molecule: N[C@@H](CSSC[C@H](N)C(=O)O)C(=O)O [L-cystine]
X-ray crystal structure, 3.37 Å [2]: we determined the structure of the ligand bound state in complex with Syb39
nanoDSF tryptophan fluorescence quench, DDM-purified protein [3]: it still retains WT levels of L-cystine binding

Molecule: human cystinosin (WT) (Homo sapiens; DEL362-367)
Km [6]: 117 ± 2.4 µM

Kd [7]: 90 nM
binding result [8]: binds
B1: Nb4 (VHH)
VHH: QVQLVESGGGLVQAGGSLRLSCAASGRTITPISTYVMGWFRQDPGKEREFVASISWNGANTYYADSVKGRFTISRDNAKNTVYLQMNSLKPEDTAVYYCAADPESHVRLRLGVGAYWGRGTQVTVSS
notes: llama nanobody; also called llama derived nanobody (Nb4)

B2: Arabidopsis thaliana cystinosin (plant cystinosin) (Arabidopsis thaliana) (protein)
chain: T1 sequence (P57758 1-270)
notes: codon-optimised gene expressed in Saccharomyces cerevisiae BJ5460 as cleavable C-terminal GFP-His fusion; tag cut with TEV protease; DDM-purified; reconstituted in POPE:POPG liposomes for transport
Km ([9]; proton-coupled symport): 19 ± 2.9 µM

B3: Arabidopsis thaliana cystinosin (plant cystinosin) (Arabidopsis thaliana; Y167F) (protein)
chain: T1 sequence (P57758 1-270) with Y167F
notes: as for B2
Km [9]: 73.3 ± 12.8 µM

B4: human cystinosin Δ2-115 variant (ΔN) (Homo sapiens; DEL2-115) (protein)
chain: MLVIRSSAISIINQVIGWIYFVAWSISFYPQVIMNWRRKSVIGLSFDFVALNLTGFVAYSVFNIGLLWVPYIKEQFLLKYPNGVNPVNSNDVFFSLHAVVLTLIIIVQCCLYERGGQRVSWPAIGFLVLAWLFAFVTMIVAAVGVTTWLQFLFCFSYIKLAVTLVKYFPQAYMNFYYKSTEGWSIGNVLLDFTGGSFSLLQMFLQSYNNDQWTLIFGDPTKFGLGVFSIVFDVVFFIQHFCLYRKRP
notes: no GFP; Xenopus laevis oocytes
Km [10]: 117 ± 28.9 µM

Kd [7]: 760 nM
binding result [11]: binds
B5: sybody 39 (VHH)
VHH: QVQLVESGGGLVQAGGSLRLSCAASGFPVYRNRMHWYRQAPGKEREWVAAIESAGQETHYADSVKGRFTISRDNAKNTVYLQMNSLKPEDTAVYYCNVKDEGWYWQTYDYWGQGTQVTVSA
notes: synthetic nanobody selected from the loop library; also called Syb39

Kd [7]: 189 nM
binding result [8]: binds
B6: Nb1 (VHH)
VHH: QVQLVESGGGSAQPGGSLRLSCAVSGSVSELNTMGWFRQAPGKQRELVARITATSDATNYADSVKGRFTISRDNGWNTVYLQSNSLKPEDSAVYYCNVEGAPSWFSGIRSYWGQGTQVTVSS
notes: llama nanobody
